In paper PMC5412928, “Engineered ligand‐based VEGFR antagonists with increased receptor binding affinity more effectively inhibit angiogenesis” (Bioengineering & Translational Medicine, 2017):

What was measured:
VEGFR2 on HUVECs = biological target: T1, VEGFR2 on HUVECs (human (endogenous in HUVECs), UniProt P35968 20-1356); assay: flow cytometry on cells; apparent; soluble FLAG-tagged scVEGF variants titrated on 50,000 serum-starved HUVECs (bear VEGFR2 and αvβ3 integrin) in integrin binding buffer, 4°C, 4–6 hr; phycoerythrin anti-FLAG antibody; sigmoidal fit; details: one partner purified
T1 construct: VEGFR2, endogenous on HUVECs; HUVECs also bear αvβ3 integrin; source: endogenous, on human umbilical vein endothelial cells (HUVECs)
T1 sequence (P35968 20-1356): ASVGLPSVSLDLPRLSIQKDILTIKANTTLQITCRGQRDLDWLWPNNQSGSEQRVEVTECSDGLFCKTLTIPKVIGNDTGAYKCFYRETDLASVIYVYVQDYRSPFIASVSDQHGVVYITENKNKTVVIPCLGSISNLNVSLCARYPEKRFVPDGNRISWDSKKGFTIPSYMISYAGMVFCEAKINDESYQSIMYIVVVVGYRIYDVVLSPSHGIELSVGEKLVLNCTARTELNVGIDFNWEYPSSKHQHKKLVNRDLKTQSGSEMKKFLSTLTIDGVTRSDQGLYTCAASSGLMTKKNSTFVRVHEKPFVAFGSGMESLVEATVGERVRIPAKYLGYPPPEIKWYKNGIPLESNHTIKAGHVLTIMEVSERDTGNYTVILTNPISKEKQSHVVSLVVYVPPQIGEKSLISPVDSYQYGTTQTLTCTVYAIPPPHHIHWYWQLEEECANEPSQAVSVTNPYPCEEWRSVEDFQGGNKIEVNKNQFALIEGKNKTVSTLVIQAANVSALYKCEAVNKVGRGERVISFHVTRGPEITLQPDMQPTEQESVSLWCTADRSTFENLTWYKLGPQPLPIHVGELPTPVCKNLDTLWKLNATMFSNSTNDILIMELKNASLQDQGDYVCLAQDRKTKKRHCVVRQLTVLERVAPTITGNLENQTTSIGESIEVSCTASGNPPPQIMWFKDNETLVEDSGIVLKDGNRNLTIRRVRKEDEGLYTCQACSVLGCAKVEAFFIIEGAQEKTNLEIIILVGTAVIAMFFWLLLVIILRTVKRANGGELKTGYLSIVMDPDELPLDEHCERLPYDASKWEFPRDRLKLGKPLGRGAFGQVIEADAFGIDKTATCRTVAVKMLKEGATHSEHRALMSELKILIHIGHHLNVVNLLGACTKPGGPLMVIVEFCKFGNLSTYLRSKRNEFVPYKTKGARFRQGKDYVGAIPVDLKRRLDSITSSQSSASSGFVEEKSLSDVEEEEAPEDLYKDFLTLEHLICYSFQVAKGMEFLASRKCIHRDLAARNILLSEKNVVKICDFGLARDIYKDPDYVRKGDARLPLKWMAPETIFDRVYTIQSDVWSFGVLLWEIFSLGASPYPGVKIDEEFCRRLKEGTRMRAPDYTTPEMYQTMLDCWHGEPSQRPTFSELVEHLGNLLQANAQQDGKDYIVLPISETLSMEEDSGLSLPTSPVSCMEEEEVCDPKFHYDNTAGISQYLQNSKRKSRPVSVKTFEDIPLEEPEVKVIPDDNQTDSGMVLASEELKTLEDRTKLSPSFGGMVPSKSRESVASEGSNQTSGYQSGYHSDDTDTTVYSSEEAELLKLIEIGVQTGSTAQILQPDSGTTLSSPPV

[1] = biological target: T2, human VEGFR2 on PAE/KDR cells (human, UniProt P35968 20-1356); assay: flow cytometry on cells; soluble FLAG-tagged scVEGF variants titrated on 50,000 PAE/KDR cells in integrin binding buffer (20 mM Tris pH 7.5, 100 mM NaCl, 1 mM MgCl2, 1 mM MnCl2, 2 mM CaCl2, 1 mg/ml BSA), 4°C, 4–6 hr; phycoerythrin anti-FLAG antibody; sigmoidal fit of mean fluorescence; details: one partner purified
T2 construct: VEGFR2 (KDR), human, stably expressed on porcine aortic endothelial cells; also called vascular endothelial growth factor receptor 2; source: porcine aortic endothelial (PAE) cells stably transfected to express human VEGFR2 (PAE/KDR cells), on cells
T2 sequence (P35968 20-1356): as above

| Binder | fold tighter binding of scVEGFmE7I than of scVEGFmut (VEGFR2 on HUVECs) | Kd [1] | Kd (VEGFR2 on HUVECs) |
| --- | --- | --- | --- |
| scVEGFmut (ligand) APMAEGGGQNHHEVVKAMDVYQRSYCHPIETLVDIFQEYPDEIEYIFKPSCVPLMRCGGCCNDAGLECVPTEESNITMQIMRIKPHQGQHIGEMSFLQHNKCECRPKKDGSTSGSGKSSEGKGAPMAEGGGQNHHEVVKFMDVYQRSYCHPIETLVDIFQEYPDEIEYAFKPSCVPLMRCGGCCNDEGLECVPTEESNITMQIMRAKPHQGQHIGEMSFLQHNKCECRPKKD | ≥ 330 fold | 27 nM |  |
| scVEGFwt (ligand) APMAEGGGQNHHEVVKFMDVYQRSYCHPIETLVDIFQEYPDEIEYIFKPSCVPLMRCGGCCNDEGLECVPTEESNITMQIMRIKPHQGQHIGEMSFLQHNKCECRPKKDGSTSGSGKSSEGKGAPMAEGGGQNHHEVVKFMDVYQRSYCHPIETLVDIFQEYPDEIEYIFKPSCVPLMRCGGCCNDEGLECVPTEESNITMQIMRIKPHQGQHIGEMSFLQHNKCECRPKKD |  |  | 3.8 nM |
